The results in this text go back to US20170281764A1.

In test [1] the target is CD155 on K562 cells (human) (UniProt P15151). In words: flow cytometry of K562 cells stained with APC-labelled anti-CD155 (clone SKII.4 per paragraph 220); percent of cells in the marker gate from about 2x10^1 to 10^4. (In general: Flow cytometry measures light scatter and fluorescence of single cells or particles in a stream.)
The target of test [2] is human TIGIT on cells (Jurkat-TIGIT cells; human T cells, NK cells and other blood cells) (human) (UniProt Q495A1). In words: flow cytometry of human PBMCs, PE anti-TIGIT (clone MBSA43 per paragraph 220) against A488 anti-CD56; CD56+ TIGIT+ gate, unit not given; right panel (third of 3 donors).
The target is the same in test [3]. In words: flow cytometry of human PBMCs, PE anti-TIGIT (clone MBSA43 per paragraph 220) against A488 anti-CD56; CD56+ TIGIT+ gate, unit not given; middle panel (second of 3 donors).
Test [4] has the same target. In words: flow cytometry of human PBMCs, PE anti-TIGIT (clone MBSA43 per paragraph 220) against A488 anti-CD56; CD56+ TIGIT+ gate, unit not given; left panel (first of 3 donors).

Chain of human TIGIT on cells (Jurkat-TIGIT cells; human T cells, NK cells and other blood cells) (human) (Q495A1 22-244): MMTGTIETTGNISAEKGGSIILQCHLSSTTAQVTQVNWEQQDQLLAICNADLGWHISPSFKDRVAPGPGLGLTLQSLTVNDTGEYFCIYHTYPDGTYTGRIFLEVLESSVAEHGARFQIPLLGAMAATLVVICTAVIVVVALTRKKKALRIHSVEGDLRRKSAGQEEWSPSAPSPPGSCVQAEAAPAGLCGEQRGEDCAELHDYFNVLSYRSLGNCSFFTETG
Chain of CD155 on K562 cells (human) (P15151 21-417 limits assumed): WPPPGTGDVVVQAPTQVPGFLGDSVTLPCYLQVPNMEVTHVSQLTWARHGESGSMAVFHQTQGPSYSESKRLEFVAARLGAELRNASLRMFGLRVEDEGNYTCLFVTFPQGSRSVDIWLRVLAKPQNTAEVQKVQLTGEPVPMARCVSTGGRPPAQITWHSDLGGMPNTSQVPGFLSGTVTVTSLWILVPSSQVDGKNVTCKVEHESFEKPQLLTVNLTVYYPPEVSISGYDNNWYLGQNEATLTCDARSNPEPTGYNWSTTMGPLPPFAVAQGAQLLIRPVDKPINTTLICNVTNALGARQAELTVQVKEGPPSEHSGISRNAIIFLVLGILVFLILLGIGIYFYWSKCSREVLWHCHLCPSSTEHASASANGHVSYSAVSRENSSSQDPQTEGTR

As for CD155 - APC (antibody), the % CD155 in test [1] is 98.5%.
Consider “anti-human TIGIT antibody clone MBSA43 (commercial; eBiosciences / BioLegend)”, for which the TIGIT+ NK Cells in test [2] was determined as 5.47; in test [3] it was 8.03; in test [4] it was 4.84.
